Assay [1] has as its target T1, human SEMA4D, full length, on CHO-K1 cells (CHO-K1 hSEMA4D) (human, UniProt Q92854 22-862).
T1 construct: whole, on cells; also called human SEMA4D recombinant cells
T1 sequence (looked up): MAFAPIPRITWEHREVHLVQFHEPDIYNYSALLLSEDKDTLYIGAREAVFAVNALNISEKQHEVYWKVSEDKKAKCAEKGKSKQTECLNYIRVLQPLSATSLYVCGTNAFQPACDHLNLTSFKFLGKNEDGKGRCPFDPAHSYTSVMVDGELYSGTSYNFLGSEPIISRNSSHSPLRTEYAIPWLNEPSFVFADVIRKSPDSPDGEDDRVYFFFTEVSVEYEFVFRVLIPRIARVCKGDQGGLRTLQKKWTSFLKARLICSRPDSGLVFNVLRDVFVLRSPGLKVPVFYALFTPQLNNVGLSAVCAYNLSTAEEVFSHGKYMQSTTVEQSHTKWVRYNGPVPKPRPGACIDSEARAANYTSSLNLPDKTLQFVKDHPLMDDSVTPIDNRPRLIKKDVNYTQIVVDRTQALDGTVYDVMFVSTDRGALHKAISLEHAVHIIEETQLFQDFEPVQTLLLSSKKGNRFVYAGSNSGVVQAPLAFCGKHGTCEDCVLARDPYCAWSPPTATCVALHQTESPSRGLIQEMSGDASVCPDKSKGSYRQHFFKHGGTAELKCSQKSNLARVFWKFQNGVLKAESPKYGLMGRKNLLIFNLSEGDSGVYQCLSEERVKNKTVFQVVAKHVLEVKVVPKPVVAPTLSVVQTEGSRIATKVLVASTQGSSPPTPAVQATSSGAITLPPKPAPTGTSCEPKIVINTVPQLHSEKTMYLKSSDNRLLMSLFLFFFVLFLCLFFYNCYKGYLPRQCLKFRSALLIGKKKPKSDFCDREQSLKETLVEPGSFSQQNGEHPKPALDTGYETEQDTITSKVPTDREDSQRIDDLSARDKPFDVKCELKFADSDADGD
The assay can be described thus: FACS, CHO-K1 hSEMA4D cells; Ab 13.3 nM. The procedure: (§1) The medium was aspirated, the cells were washed once with PBS buffer (purchased from Invitrogen), and then treated with cell dissociation fluid (TrypLE™ Express Enzyme, purchased from Life technology), and the cells were collected. After the cells counted, the cells were washed once with PBS phosphate buffer, and diluted to 3×10⁶ cells per milliliter, and added to the 96-well FACS reaction plate as 100 μL per well. 2% (w/w) fetal calf serum was added to PBS phosphate buffer as FACS buffer, with which the cells were washed once by centrifugation at 2000 rpm 4° C. 100 μL of diluted and purified leading antibodies was added to each well and the plate was incubated for 1 hour on ice. […] Cells were washed 2 times by centrifugation with FACS buffer. The cells were suspended with 200 μL of FACS buffer, and FACS (FACS Verse, purchased from BD) was used to detect and analyze the results.
In general terms: A flow cytometer gives signals particle by particle.

Assay [2] concerns the target T2, biotinylated hSEMA4D ECD-His (human, UniProt Q92854 22-734, biotinylated with Biotin-X-X-NHS at a molar ratio of 8:1; sites not stated).
T2 construct: also called biotinylated immunogen; not shown: His tag of the pCP vector
T2 sequence: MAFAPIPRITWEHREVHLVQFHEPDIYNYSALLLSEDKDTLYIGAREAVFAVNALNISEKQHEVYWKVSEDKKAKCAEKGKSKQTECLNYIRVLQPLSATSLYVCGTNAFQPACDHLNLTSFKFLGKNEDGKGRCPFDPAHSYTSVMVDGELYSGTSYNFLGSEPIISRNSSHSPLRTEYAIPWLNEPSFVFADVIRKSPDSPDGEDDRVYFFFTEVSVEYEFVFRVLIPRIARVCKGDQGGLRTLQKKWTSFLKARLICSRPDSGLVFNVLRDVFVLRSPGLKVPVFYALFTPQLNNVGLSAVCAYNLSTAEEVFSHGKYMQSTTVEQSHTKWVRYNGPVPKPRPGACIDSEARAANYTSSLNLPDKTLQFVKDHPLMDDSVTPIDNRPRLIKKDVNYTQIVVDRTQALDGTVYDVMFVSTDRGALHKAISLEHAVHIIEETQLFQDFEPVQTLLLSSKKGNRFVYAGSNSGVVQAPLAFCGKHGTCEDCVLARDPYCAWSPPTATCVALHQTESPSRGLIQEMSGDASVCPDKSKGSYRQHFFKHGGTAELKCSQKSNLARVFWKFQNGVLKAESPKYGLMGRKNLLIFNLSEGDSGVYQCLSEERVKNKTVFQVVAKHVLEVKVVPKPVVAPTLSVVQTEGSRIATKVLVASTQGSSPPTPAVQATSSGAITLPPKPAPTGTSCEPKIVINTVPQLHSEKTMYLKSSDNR
The assay can be described thus: FACS, blocking of biotinylated hSEMA4D ECD-His binding to 293F hPlexin B1 cells; Ab 0.107 nM. The protocol: as §1, with “1×10⁶” for “3×10⁶”, “C. Meanwhile, the purified leading antibody and biotinylated hSEMA4D ECD-His were mixed and incubated on ice for 30 minutes. Then” for “C.”, “the mixture” for “diluted and purified leading antibodies”, “incubated on ice” for “incubated”, “hour.” for “hour on ice.”, “results. The results are shown in FIGS. 11A-11B and Tables 20-21.” for “results.”

Assay [3] concerns the target T2, biotinylated hSEMA4D ECD-His. The assay can be described thus: FACS, blocking of biotinylated hSEMA4D ECD-His binding to 293F hPlexin B1 cells; Ab 66.7 nM. The protocol:
as §1, with “1×10⁶” for “3×10⁶”, “C. Meanwhile, the purified leading antibody and biotinylated hSEMA4D ECD-His were mixed and incubated on ice for 30 minutes. Then” for “C.”, “the mixture” for “diluted and purified leading antibodies”, “incubated on ice” for “incubated”, “hour.” for “hour on ice.”, “results. The results are shown in FIGS. 11A-11B and Tables 20-21.” for “results.”

For assay [4] the target is unchanged. The assay can be described thus: FACS, blocking of biotinylated hSEMA4D ECD-His binding to 293F hPlexin B1 cells; Ab 0.0213 nM. The protocol:
as §1, with “1×10⁶” for “3×10⁶”, “C. Meanwhile, the purified leading antibody and biotinylated hSEMA4D ECD-His were mixed and incubated on ice for 30 minutes. Then” for “C.”, “the mixture” for “diluted and purified leading antibodies”, “incubated on ice” for “incubated”, “hour.” for “hour on ice.”, “results. The results are shown in FIGS. 11A-11B and Tables 20-21.” for “results.”

Assay [5] shares this target. Put plainly: FACS, blocking of biotinylated hSEMA4D ECD-His binding to 293F hPlexin B1 cells; Ab 0.00427 nM. The procedure:
as §1, with “1×10⁶” for “3×10⁶”, “C. Meanwhile, the purified leading antibody and biotinylated hSEMA4D ECD-His were mixed and incubated on ice for 30 minutes. Then” for “C.”, “the mixture” for “diluted and purified leading antibodies”, “incubated on ice” for “incubated”, “hour.” for “hour on ice.”, “results. The results are shown in FIGS. 11A-11B and Tables 20-21.” for “results.”

B1: 42B7G2 (antibody, V domains shown)
VH: QVQLQQSGAELARPGASVKLSCKASGYTFTDYGISWVKQRTGQGLEWIGEIYLRNDNSYYNEKFKGKATLTADKSSNTAYMELRSLTSEDSAVYFCARWGDHGNNYEDAMDYWGQGTSVTVSS
VL: DIVLTQSPASLAMSLGKRATISCRASESVSIIGSNLIHWYQQKPGQPPKLLIYHASNLETGVPARFSGSGSRTDFTLTIDPVEEDDVAIYYCLQSRKVPYTFGGGTKLEIK
notes: Mouse monoclonal antibody purified from hybridoma supernatant on protein A
In assay [1], B1 came in with an MFI of 3950.

B2: 37C4F7 (antibody, V domains shown)
VH: EFQLQQSGPEVVKPGASVKISCKASGYSFTDYNMNWMKQSKGKSLEWIGVINPNYGTTTYNQNFKGKATLTVDQSSSTAYMQLNSLTSEDSAVYYCARDMYYVYAYYTMDYWGQGTSVTVSS
VL: DVVMTQTPLSLPVSLGDQASISCRSSQSLVHSNGHTYLHWYLQRPGQSPTLLIYKVSNRFSGVPDRFSGSGSGTDFTLKISRVEAEDLGVYFCSQGTHVPWTFGGGTKLEIK
notes: as for B1
B2 displayed an MFI in assay [1] of 4290.

B3: 38H2E3 (antibody, V domains shown)
VH: EFQLQQSGPEVVKPGASVKISCKASGYSFTDYNMNWMKQSKGKSLEWIGVISPDYGTTTYNQNFKDKATLTVDQSSSTAYMQLNSLTSEDSAVYYCAKDMYYVYAYYTMDYWGHGTSVTVSS
VL: DVVMTQTPLSLPVSLGDQASISCRSSQSLVHSNGHTYLHWYLQRPGQSPTLLIYKVSNRFSGVPDRVSGSGSGTDFTLKISRVEAEDLGVYFCSQGTHVPRTFGGGTKLEIK
notes: as for B1
In assay [1], B3 showed an MFI of 4630.

B4: 32C8F10 (antibody, V domains shown)
VH: EVQLQQSGAELVRPGASVKLSCTASGFNIKDEYIHWVKQRPEQGLEWIGWIDPANGHTEYASRFQAKATITADTSSNTAYLQLSSLTSEDTAVYYCTTGDYDGFAYWGQGTLVTVST
VL: QIVLTQSPAIMSASPGEKVTISCSARSSVSYMYWYQQKPGSSPKPWIYRTSNLASGVPARFSGSGSGTSYSLTISSMEAEDAATYYCQHYHTYPYTFGGGTKLEIK
notes: as for B1
Regarding B4, the “MFI (residual ligand binding)” value in assay [2] was found to be 454; in assay [3], 55.5; in assay [4] it was 463; in assay [5], 471. Moreover, the MFI in assay [1] came out at 7830.

B5: 31G10C5 (antibody, V domains shown)
VH: EVQLQQSGAELVRPGASVKLSCTASGFNIKDDYIHWVKQRPEQGLEWIGWIDPANGHIEYASNFQAKATITADTSSNTAYLQLSSLTSEDTAVYYCTTGDYDGFTYWGQGTLVTVST
VL: QIVLTQSPAIMSASPGEKVTISCSARSSVSYMYWYQQKPGSSPKPWIYRTSNLASGVPARFSGSGSGTSYSLTISSMEAEDAATYYCQHYHTYPYTFGGGTKLEIK
notes: as for B1
For the molecule B5, the “MFI (residual ligand binding)” value came out at 460 in assay [2], 54.2 in assay [3], 466 in assay [4] and 470 in assay [5]. In assay [1], the MFI is 6180.

B6: 31C11G2 (antibody, V domains shown)
VH: EVQLQQSGAELVRPGASVKLSCTASGFNIKDEYIHWVKQRPEQGLEWIGWIDPANGHTEYASRFQAKATITADTSSNTAYLQLSSLTSEDTAVYYCTTGDYDGFVYWGQGTLVTVST
VL: QIVLTQSPAIMSASPGEKVTIFCSARSSVSYMYWYQQKPGSSPKPWIYRTSNLASGVPARFSGSGSGTSYSLTISSMEAEDAATYYCQHYHTYPYTFGGGTKLEIK
notes: as for B1
Consider B6, for which the “MFI (residual ligand binding)” value in assay [2] stood at 530; in assay [3], 54.2; in assay [4] it was 547; in assay [5], 544. In addition, the MFI in assay [1] was determined as 6670.

B7: 37F11F9 (antibody, V domains shown)
VH: EVQLQQSGPVLVKPGASVKMSCKASGYTFTDYYMNWVKQSHGKSLEWIGLINPYSGGSTFNQKFKAKATLTVDKSSSSAYMDLNSLTSEDSAVYYCARVGDGYYGVTHGMDYWGQGTSVTVSS
VL: DIVMTPSQKFMSTTVGDRVSITCKASQNVGTAVAWYQQKPGQSPTILIYSASNRYTGVPDRFTGSGSGTDFTLTISNMKSEDLADYFCQQYYIYPFTFAAGTKLELK
notes: as for B1
As for B7, in assay [1], the MFI is 3960.
